Data as given in the supplement of paper PMC12042874.
± gives the uncertainty stated by the source.

Assay: amyloid nucleation score (Sup35N fusion, yeast selection) (log enrichment); library NNK2; higher = more nucleation; inactive = no reads after selection
Outline: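 In psi-negative yeast, Sup35N fusions carrying peptides of 20 random codons were induced with 100 μM copper sulfate for 24 hours. The cells then grew 7 days at 30°C on medium lacking adenine and uracil, and plasmid inserts from input and output were Illumina-sequenced, excluding sequences with under 100 input reads. Nucleation score is the DiMSum log enrichment of output over input reads, centred on the mode score of non-aggregating sequences.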

Substance | amyloid nucleation score
ARLKLDRRPMKSSMVCIHSA | 6.16 ± 0.089
ARVRVYRWWTLATTWGRVGF | 2.85 ± 0.14
ASGVYHDSFRRLCCMGDLSC | -0.121 ± 0.18
ASHRVNGEVRYRRWSVLKRM | 0.839 ± 0.24
ASMYLNSSH | inactive
ASNAFRSGYWQGERHERMRL | 1.07 ± 0.14
ASSIG | 0.072 ± 0.26
ASSSGPGCSLVSSVHASRQG | 1.54 ± 0.52
ASVPCVIMGRASRPRVPRMS | 1.42 ± 0.29
ASWIAGYITMHTISSFP | 0.056 ± 0.36
ATARS | 0.701 ± 0.29
ATHVCVGFTYGFWW | 2.4 ± 0.14
ATKVISALSIRMRRK | 1.32 ± 0.3
ATRCGDFDQACHSGIT | 0.749 ± 0.28
ATVRFWWKFVYACGMAWWWV | 0.001 ± 0.55
AVCTESMLWS | 0.057 ± 0.16
AVDSHVIYSV | -0.96 ± 0.45
AVPMMSWSFIVSYVGRNNSM | 1.7 ± 0.19
AVSFWSIF | 0.307 ± 0.64
AVVFSNCGCFSMKFYMVVAT | -2.06 ± 0.48
AVWCDFHSERAMCVVGM | 5.249 ± 0.043
AWCFSWHQKLLAR | 0.471 ± 0.36
AWDGIHTMMITYLKFIEKCQ | -1.31 ± 0.62
AWGGSRNRMYFYHSPVRFFE | 4.5 ± 0.088
AWGYDKAVIFGAVDLQHVGT | 0.062 ± 0.79

Substance | amyloid nucleation score
AYAKGYCLLSPVLDWRLHFS | 2.52 ± 0.13
AYCFVGFALVRCVGANDVRR | 1.6 ± 0.22
AYEGFISYLIYLSIRNSSPC | inactive
AYHNLRN | 0.191 ± 0.63
AYIDVTWWPFVFLDQVMYTT | 0.089 ± 0.48
AYINRHVEWRCTVRTVALSS | 0.664 ± 0.38
AYIVDTKVT | 1.11 ± 0.68
AYSSMCSTMRNKCCL | 0.504 ± 0.6
AYTMQLNHRLVLSVSS | 0.219 ± 0.74
CAGMWRFMGMVFGISTLFQC | -1.44 ± 0.41
CAKGPKSWQNGNE | 0.626 ± 0.8
CANFRSGYGA | -0.241 ± 0.35
CAPDVQWFSKIAFE | 1.1 ± 0.53
CAPFVRDFINMVCRRMPNTN | 0.566 ± 0.66
CARSWLRVLGTSPEKMKG | 0.627 ± 0.74
CASAFCLTRE | 4.49 ± 0.057
CASMVIMG | inactive
CCGGVRMMEELRCSTWSRVV | 0.868 ± 0.26
CCQSFNVNRSTLNNLGRSYL | 0.848 ± 0.16
CCTTIEGDTLCGCFWD | 10.08 ± 0.038
CCVGGVPV | 2.57 ± 0.083
CCVVIKN | 6.08 ± 0.079
CDFLWWPTQFANRRTKVGVW | 0.083 ± 0.76
CDKFFLDF | -1.9 ± 0.48
CDLKERTEYMHFLLTFYLVR | -0.891 ± 0.36

Substance | amyloid nucleation score
CDSVLPRLLNYKYTKNK | 0.14 ± 0.63
CECVSSCVYSVILLGCTRSF | inactive
CEDSCSSCNGILLDVREERS | 1.89 ± 0.076
CFDEFTLCKVLWNMFSTFLG | -0.707 ± 1.1
CFGVRDSGRYFDTLSNVRSR | 1.11 ± 0.68
CFKLTNINAL | inactive
CFLMNKVT | -1.5 ± 0.49
CFLVDFHVARSVDSYVELGS | -0.436 ± 1.1
CFRKFRMEEPLGIRFSHLDT | -0.345 ± 0.21
CFSLYSCKDSINDMLKRSQN | -1.12 ± 1.1
CFSSIQIRDKTVVGDSWMFR | 3.58 ± 0.14
CFVKRLHVLWLSKTVCRAVL | 0.113 ± 0.21
CFWWNPGSILIRWCLKVLPG | -1.59 ± 0.54
CGLNCVAGGREEDRVYVLSS | 0.088 ± 0.22
CGMISLSSNVMSFALPFLYY | 0.824 ± 0.15
CGNISQVKEDLRMTTLIFRV | inactive
CGNNCTQYRHDWWGGMKLRD | 2.38 ± 0.085
CGQLSVWYEGMINVSCFLEI | -1.4 ± 0.75
CGRLGLHYQCMLCCGIGSIL | 2.23 ± 0.27
CGRRILSRWVITLLVPGGSF | inactive
CGRVTTFSLRNVARVCVSAF | -0.308 ± 0.25
CHCWSELIQIFII | 5.86 ± 0.061
CHSGVFRVKSCTEYRMGLYS | inactive
CHVCFRETARYMCVGWYYGS | -0.283 ± 0.65
CHVVVVLEF | 2.71 ± 0.078

Substance | amyloid nucleation score
CHYKMHSLHTARFEFFVMLF | -0.413 ± 0.41
CICLIMRTKTCELGSLLG | 5.781 ± 0.046
CIDRFHTVPLAVHSVCGILL | -0.319 ± 0.76
CIFWVRCKFYGNLNFGCLYD | 7 ± 0.078
CIGYKLLLGELLAP | 0.137 ± 0.5
CIIVISFLTITWKCAEPELQ | inactive
CIMCGALEIGFGIIRGWEDF | 9.421 ± 0.067
CIMPVCVYDCLPLGRGIYWR | 0.745 ± 0.22
CIQTSSREVSFRSIATDGST | 4.27 ± 0.047
CISVPMIFDFTIWA | 6.64 ± 0.071
CITVFAVINMQSAAVSCKQV | 6.72 ± 0.07
CIVCFVFMLKRALLLHFCIA | -0.81 ± 1
CIVSVNERRVVFGAVNTEFR | 4.79 ± 0.058
CKFWYLARWWIFLWSPRYK | -0.153 ± 1.1
CKLMMGVFVLTVNTCGDVSS | 5.33 ± 0.054
CKLTRGSPMSYSEVR | -0.188 ± 0.29
CKRQYHYLIWRMMEMSPGVL | 5.07 ± 0.058
CKRSTH | -0.461 ± 0.49
CKTHPKKNSGFWRKLKGCLG | 3.17 ± 0.15
CKVHVQVNTESYTGIVMTYY | 4.65 ± 0.039
CLFSILLVMIPASFYTAMWL | -0.588 ± 1.1
CLGKSRYCISDWKFLSLWPN | -0.932 ± 0.55
CLGNVCNSFNWLDVRACVWR | 1.52 ± 0.23
CLIDFWKRDFKSAVDSKGTA | 0.125 ± 0.65
CLKGKYESYNADVNAHYSLA | 0.13 ± 0.45

Substance | amyloid nucleation score
CLLIGLAMGMVCSLPLGRIL | 0.123 ± 1
CLLVSEQRSRRHRRGALCIG | 0.872 ± 0.32
CLNQSLRNTSWKHMAEPKKR | 3.82 ± 0.12
CLPCCGAFNKCANRYQVSEM | -0.249 ± 0.39
CLRILGDISSFRGMRHTTLH | 0.042 ± 1.1
CLSFIILMWLDRNVGMVQI | -0.579 ± 0.49
CLSNL | -0.864 ± 0.48
CLTTRTSGHNGYQRHDLI | inactive
CLVKCAMPILVINICAG | 7.82 ± 0.061
CMGNSYFMFNSYANFKNNWA | 5.54 ± 0.093
CMISTDLKVTRALSTHKNCI | 0.02 ± 0.56
CMLASSFMVVRSRLLSSRAM | 1.14 ± 0.32
CMNTISVLSECASTRQTC | -0.068 ± 0.31
CMPMISRVLGCDNSYYMSSA | 0.029 ± 0.4
CMRGLVKAGMIMTVFDRLSY | -1.22 ± 1.1
CMTSKVLRLDYRRMMVNIDC | -0.58 ± 0.42
CMTTYTNLIHIPIQVSTPKR | 7.51 ± 0.043
CMVIRSW | -0.064 ± 0.34
CNDGMTTSDYWWCSARLDPY | 0.345 ± 0.2
CNFKINRAHNELPLDDLRNF | inactive
CNFVRSYDCHQVKLSI | -1.18 ± 1.1
CNILH | 1.36 ± 0.3
CNIVRSYCLL | -0.937 ± 0.5
CNKESFSMI | -0.791 ± 0.55
CNLCSDP | inactive
